Here are results for 1 substance from doi:10.1101/2025.08.27.672506.

The test concerns the target wild-type ectodomain of HA from A/Malaysia/1706215/2007 (H1N1) (influenza A virus A/Malaysia/1706215/2007 (H1N1)). The experiment in a line: SEC.

Usually stoichiometry N stands for the number of molecules, sites or subunits per partner or assembly. In turn, “wild-type ectodomain of HA from A/Malaysia/1706215/2007 (H1N1) (domain or fragment)” came in with a stoichiometry N of 3.
